Results taken from paper PMC6804253, “Predicting and Experimentally Validating Hot-Spot Residues at Protein–Protein Interfaces” (ACS Chemical Biology, 2019).
Residue numbers refer to the chain shown, from its start. Where a SMILES comes first, the peptide text is derived from it. Where no end group is shown, it is not given here. The star is where a group is joined. 5FAM = O=C1OC2(c3ccc(O)cc3Oc3cc(O)ccc32)c2ccc(C(=O)*)cc21; AEEA = NCCOCCOCC(=O)O

T1: SHANK-PDZ (Homo sapiens, UniProt Q9Y566)
T1 sequence (Q9Y566 656-762): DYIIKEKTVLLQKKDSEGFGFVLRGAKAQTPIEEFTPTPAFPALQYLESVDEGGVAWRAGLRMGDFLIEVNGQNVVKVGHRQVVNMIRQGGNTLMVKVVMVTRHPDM

B1: 2WPT SA50A (protein, UniProt P04482 1-86, looked up, variant S50A)
Colicin-E2 immunity protein: MELKHSISDYTEAEFLEFVKKICRAEGATEEDDNKLVREFERLTEHPDGADLIYYPRDDREDSPEGIVKEIKEWRAANGKSGFKQG
B2: 1AHW DC178A (protein, UniProt P13726 33-251, looked up, variant D178A)
extracellular domain: SGTTNTVAAYNLTWKSTNFKTILEWEPKPVNQVYTVQISTKSGDWKSKCFYTTDTECDLTDEIVKDVKQTYLARVFSYPAGNVESTGSAGEPLYENSPEFTPYLETNLGQPTIQSFEQVGTKVNVTVEDERTLVRRNNTFLSLRDVFGKDLIYTLYYWKSSSSGKKTAKTNTNEFLIAVDKGENYCFSVQAVIPSRTVNRKSTDSPVECMGQEKGEFRE
modifications: extracellular domain
B3: 1DAN RU131A (protein, UniProt P13726 33-251, looked up, variant R131A)
extracellular domain: B2 extracellular domain with R131A, A178D
modifications: extracellular domain
B4: 1DAN DT58A (protein, UniProt P13726 33-251, looked up, variant D58A)
extracellular domain: B2 extracellular domain with D58A, A178D
modifications: extracellular domain
B5: 1DAN EU99A (protein, UniProt P13726 33-251, looked up, variant E99A)
extracellular domain: B2 extracellular domain with E99A, A178D
modifications: extracellular domain
B6: 1DAN KT20A (protein, UniProt P13726 33-251, looked up, variant K20A)
extracellular domain: B2 extracellular domain with K20A, A178D
modifications: extracellular domain
B7: 1DAN KT48A (protein, UniProt P13726 33-251, looked up, variant K48A)
extracellular domain: B2 extracellular domain with K48A, A178D
modifications: extracellular domain
B8: 1DAN KT15A (protein, UniProt P13726 33-251, looked up, variant K15A)
extracellular domain: B2 extracellular domain with K15A, A178D
modifications: extracellular domain
B9: 1DAN KT28A (protein, UniProt P13726 33-251, looked up, variant K28A)
extracellular domain: B2 extracellular domain with K28A, A178D
modifications: extracellular domain
B10: 1DAN KU122A (protein, UniProt P13726 33-251, looked up, variant K122A)
extracellular domain: B2 extracellular domain with K122A, A178D
modifications: extracellular domain
B11: 1DAN DT44A (protein, UniProt P13726 33-251, looked up, variant D44A)
extracellular domain: B2 extracellular domain with D44A, A178D
modifications: extracellular domain
B12: 1DAN DU129A (protein, UniProt P13726 33-251, looked up, variant D129A)
extracellular domain: B2 extracellular domain with D129A, A178D
modifications: extracellular domain
B13: 1DAN ET24A (protein, UniProt P13726 33-251, looked up, variant E24A)
extracellular domain: B2 extracellular domain with E24A, A178D
modifications: extracellular domain
B14: 1DAN KT46A (protein, UniProt P13726 33-251, looked up, variant K46A)
extracellular domain: B2 extracellular domain with K46A, A178D
modifications: extracellular domain
B15: 1DAN EU128A (protein, UniProt P13726 33-251, looked up, variant E128A)
extracellular domain: B2 extracellular domain with E128A, A178D
modifications: extracellular domain
B16: 1DAN KT41A (protein, UniProt P13726 33-251, looked up, variant K41A)
extracellular domain: B2 extracellular domain with K41A, A178D
modifications: extracellular domain
B17: 1DAN ET26A (protein, UniProt P13726 33-251, looked up, variant E26A)
extracellular domain: B2 extracellular domain with E26A, A178D
modifications: extracellular domain
B18: 1EMV NA69A (protein, UniProt P13479 1-86, looked up, variant N69A)
Colicin-E9 immunity protein: MELKHSISDYTEAEFLQLVTTICNADTSSEEELVKLVTHFEEMTEHPSGSDLIYYPKEGDDDSPSGIVATVKQWRAANGKSGFKQG

Legend:
SUMO-1 = molecular target: T2, SUMO-1 (Homo sapiens, UniProt P63165); format: binding
T2 construct: The pet19b His-TEV-SUMO-1 (18-97) construct was over-expressed; His-TEV (N, cleaved yes); made in house; host or cells: E. coli Rosetta 2

SHANK-PDZ = molecular target: T1, SHANK-PDZ; settings: for H (fitted ITC data): binding enthalpy from ITC fit; for H (fitted ITC data) / S (fitted ITC data): 20 mM Tris, 150 mM NaCl pH 7.5 at 25 °C; for S (fitted ITC data): binding entropy from ITC fit
[1] = test system: PPIs of the SKEMPI data set (by PDBID); assay: SKEMPI experimental ΔΔG, single mutations to alanine; format: binding; settings: class of the SKEMPI experimental ΔΔG
[2] = test system: PPIs of the SKEMPI data set (by PDBID); settings: single mutation to alanine, ref SKEMPI, cited from earlier work; for sk_ddG_kJ: SKEMPI experimental ΔΔG of binding, complex by PDBID

T2 sequence (P63165 18-97, species assumed): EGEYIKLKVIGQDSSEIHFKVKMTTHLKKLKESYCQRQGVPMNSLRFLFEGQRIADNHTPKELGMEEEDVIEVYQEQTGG

Molecule | sk_class ([1]; ref SKEMPI) | sk_ddG_kJ [2] | further results
CC[C@H](C)[C@H](NC(=O)[C@H](C)NC(=O)[C@H](CC(N)=O)NC(=O)[C@H](CC(=O)O)NC(=O)COCCOCCNC(=O)c1ccc2c(c1)C(=O)OC21c2ccc(O)cc2Oc2cc(O)ccc21)C(=O)N[C@@H](CCC(=O)O)C(=O)N[C@H](C(=O)N[C@H](C(=O)N[C@H](C(=O)N[C@H](C(=O)N[C@@H](Cc1c[nH]c2ccccc12)C(=O)N[C@@H](CCC(=O)O)C(=O)N[C@@H](CCCCN)C(=O)N[C@@H](CCCCN)C(N)=O)C(C)C)[C@@H](C)CC)[C@@H](C)CC)C(C)C [FAM-E2707A SIM] ({5FAM-AEEA}-DNAIEVIIVWEKK-NH2) |  |  | Experimental competition (ΔΔG on mutation of the residue to alanine) (SUMO-1): 1.7; Experimental competition (ΔΔG) (SUMO-1): 1.7 kJ/mol
CC[C@H](C)[C@H](NC(=O)[C@H](CCC(=O)O)NC(=O)[C@H](CC(N)=O)NC(=O)[C@H](CC(=O)O)NC(=O)COCCOCCNC(=O)c1ccc2c(c1)C(=O)OC21c2ccc(O)cc2Oc2cc(O)ccc21)C(=O)N[C@@H](CCC(=O)O)C(=O)N[C@H](C(=O)N[C@H](C(=O)N[C@@H](C)C(=O)N[C@H](C(=O)N[C@@H](Cc1c[nH]c2ccccc12)C(=O)N[C@@H](CCC(=O)O)C(=O)N[C@@H](CCCCN)C(=O)N[C@@H](CCCCN)C(N)=O)C(C)C)[C@@H](C)CC)C(C)C [FAM-I2712A SIM] ({5FAM-AEEA}-DNEIEVIAVWEKK-NH2) |  |  | Experimental competition (ΔΔG on mutation of the residue to alanine) (SUMO-1): 5.7; Experimental competition (ΔΔG) (SUMO-1): 5.7 kJ/mol
CC[C@H](C)[C@H](NC(=O)[C@H](C)NC(=O)[C@H](CCC(=O)O)NC(=O)[C@@H](NC(=O)[C@H](CCC(=O)O)NC(=O)[C@H](CC(N)=O)NC(=O)[C@H](CC(=O)O)NC(=O)COCCOCCNC(=O)c1ccc2c(c1)C(=O)OC21c2ccc(O)cc2Oc2cc(O)ccc21)[C@@H](C)CC)C(=O)N[C@H](C(=O)N[C@H](C(=O)N[C@@H](Cc1c[nH]c2ccccc12)C(=O)N[C@@H](CCC(=O)O)C(=O)N[C@@H](CCCCN)C(=O)N[C@@H](CCCCN)C(N)=O)C(C)C)[C@@H](C)CC [FAM-V2710A SIM] ({5FAM-AEEA}-DNEIEAIIVWEKK-NH2) |  |  | Experimental competition (ΔΔG on mutation of the residue to alanine) (SUMO-1): 4.7; Experimental competition (ΔΔG) (SUMO-1): 4.7 kJ/mol
CC[C@H](C)[C@H](NC(=O)[C@H](CCC(=O)O)NC(=O)[C@H](CC(N)=O)NC(=O)[C@H](CC(=O)O)NC(=O)COCCOCCNC(=O)c1ccc2c(c1)C(=O)OC21c2ccc(O)cc2Oc2cc(O)ccc21)C(=O)N[C@@H](CCC(=O)O)C(=O)N[C@H](C(=O)N[C@H](C(=O)N[C@H](C(=O)N[C@H](C(=O)N[C@@H](C)C(=O)N[C@@H](CCC(=O)O)C(=O)N[C@@H](CCCCN)C(=O)N[C@@H](CCCCN)C(N)=O)C(C)C)[C@@H](C)CC)[C@@H](C)CC)C(C)C [FAM-W2714A SIM] ({5FAM-AEEA}-DNEIEVIIVAEKK-NH2) |  |  | Experimental competition (ΔΔG on mutation of the residue to alanine) (SUMO-1): 8.1; Experimental competition (ΔΔG) (SUMO-1): 8.1 kJ/mol
Ac-EAQTRL [GKAP] |  |  | H (fitted ITC data) (SHANK-PDZ): -6.54 ± 0.04 kcal/mol; S (fitted ITC data) (SHANK-PDZ): 3.49 cal/molK
Ac-EAQTRL-NH2 [CO2H-CONH2 GKAP] |  |  | Experimental ΔΔG, direct titration (SHANK-PDZ): 11.4 kJ/mol; H (fitted ITC data) (SHANK-PDZ): -1.57 ± 0.18 kcal/mol; S (fitted ITC data) (SHANK-PDZ): 11.2 cal/molK
B1 | Positive (positive (a hot residue) ΔΔG ≥ 4.184 kJ/mol) |  | sk_ddG_kJ (SKEMPI experimental ΔΔG, mutation to alanine) ([2]; complex given by PDBID, chain and residue by mut_pdb): 10.04 kJ
B2 | Neutral (neutral (little effect) 4.184 kJ/mol < ΔΔG > −4.184 kJ/mol) | -2.01 kJ | 
B3 | Neutral (neutral (little effect) 4.184 kJ/mol < ΔΔG > −4.184 kJ/mol) | 0.00 kJ | 
B4 | Positive (positive (a hot residue) ΔΔG ≥ 4.184 kJ/mol) | 8.37 kJ | 
B5 | Neutral (neutral (little effect) 4.184 kJ/mol < ΔΔG > −4.184 kJ/mol) | -0.75 kJ | 
B6 | Positive (positive (a hot residue) ΔΔG ≥ 4.184 kJ/mol) | 10.21 kJ | 
B7 | Neutral (neutral (little effect) 4.184 kJ/mol < ΔΔG > −4.184 kJ/mol) | 1.76 kJ | 
B8 | Neutral (neutral (little effect) 4.184 kJ/mol < ΔΔG > −4.184 kJ/mol) | -1.63 kJ | 
B9 | Neutral (neutral (little effect) 4.184 kJ/mol < ΔΔG > −4.184 kJ/mol) | 0.50 kJ | 
B10 | Neutral (neutral (little effect) 4.184 kJ/mol < ΔΔG > −4.184 kJ/mol) | -0.50 kJ | 
B11 | Positive (positive (a hot residue) ΔΔG ≥ 4.184 kJ/mol) | 10.00 kJ | 
B12 | Neutral (neutral (little effect) 4.184 kJ/mol < ΔΔG > −4.184 kJ/mol) | -0.08 kJ | 
B13 | Neutral (neutral (little effect) 4.184 kJ/mol < ΔΔG > −4.184 kJ/mol) | 2.76 kJ | 
B14 | Neutral (neutral (little effect) 4.184 kJ/mol < ΔΔG > −4.184 kJ/mol) | 1.00 kJ | 
B15 | Neutral (neutral (little effect) 4.184 kJ/mol < ΔΔG > −4.184 kJ/mol) | 0.38 kJ | 
B16 | Neutral (neutral (little effect) 4.184 kJ/mol < ΔΔG > −4.184 kJ/mol) | 1.38 kJ | 
B17 | Neutral (neutral (little effect) 4.184 kJ/mol < ΔΔG > −4.184 kJ/mol) | 0.46 kJ | 
B18 |  |  | sk_class [1]: Neutral (neutral (little effect) 4.184 kJ/mol < ΔΔG > −4.184 kJ/mol); sk_ddG_kJ (SKEMPI experimental ΔΔG) ([2]; complex given by PDBID, residue group SQNT): 1.17 kJ
